Test results reported in patent US20190241648A1 (STATEN BIOTECHNOLOGY B V, published 2019).
Ends that are not written are not given here.

What was measured:
Experiment in all cases: peptide microarray
[1] = molecular target: ApoC3 peptide … S62A (human, cyclic constrained)
Method: (§1) F64 was completely variable.
(§2) Pre: staining of one of the ApoC3 peptide microarrays was done with the secondary antibody goat anti-human IgG (Fe) DyLight680 (1:5000) and control antibody mouse monoclonal anti-HA (12CA5) DyLight800 (1:2000) to investigate background interactions of the secondary antibody with the antigen-derived peptides that could interfere with the main assays. Subsequent incubation of other ApoC3 peptide microarrays with antibody samples was followed by staining with secondary and control antibodies as well as read-out at scanning intensities of 7/7 (red/green). The additional HA peptides framing the peptide arrays were stained as internal quality control to confirm the assay quality and the peptide microarray integrity.

[2] = molecular target: T1, ApoC3 peptide … P69A (human, not fully specified (bridges); also: cyclic constrained)
T1 peptide: DKFSEFWDLDAEV
Method: as §1, §2

[3] = molecular target: ApoC3 peptide … S62C (human, cyclic constrained)
Method: as §1, §2

[4] = molecular target: T2, ApoC3 peptide … D66C (human, not fully specified (bridges); also: cyclic constrained)
T2 peptide: DKFSEFWCLDPEV
Method: as §1, §2

[5] = molecular target: T3, ApoC3 peptide … K60D (human, not fully specified (bridges); also: cyclic constrained)
T3 peptide: DDFSEFWDLDPEV
Method: as §1, §2

[6] = molecular target: ApoC3 peptide … S62E (human, cyclic constrained)
Method: as §1, §2

[7] = molecular target: ApoC3 peptide … E70F (human, cyclic constrained)
Method: as §1, §2

[8] = molecular target: ApoC3 peptide … V71F (human, cyclic constrained)
Method: as §1, §2

[9] = molecular target: T4, ApoC3 peptide … D68G (human, cyclic constrained)
T4 peptide: DKFSEFWDLGPEV
Method: as §1, §2

[10] = molecular target: ApoC3 peptide … V71G (human, cyclic constrained)
Method: as §1, §2

[11] = molecular target: T5, ApoC3 peptide … D59H (human, cyclic constrained)
T5 peptide: HKFSEFWDLDPEV
Method: as §1, §2

[12] = molecular target: T6, ApoC3 peptide … F61H (human, cyclic constrained)
T6 peptide: DKHSEFWDLDPEV
Method: as §1, §2

[13] = molecular target: ApoC3 peptide … S62H (human, cyclic constrained)
Method: as §1, §2

[14] = molecular target: T7, ApoC3 peptide … F61I (human, cyclic constrained)
T7 peptide: DKISEFWDLDPEV
Method: as §1, §2

[15] = molecular target: ApoC3 peptide … S62K (human, cyclic constrained)
Method: as §1, §2

[16] = molecular target: ApoC3 peptide … E63K (human, cyclic constrained)
Method: as §1, §2

[17] = molecular target: T8, ApoC3 peptide … D68K (human, cyclic constrained)
T8 peptide: DKFSEFWDLKPEV
Method: as §1, §2

[18] = molecular target: T9, ApoC3 peptide … F61M (human, not fully specified (bridges); also: cyclic constrained)
T9 peptide: DKMSEFWDLDPEV
Method: as §1, §2

[19] = molecular target: ApoC3 peptide … E63N (human, cyclic constrained)
Method: as §1, §2

[20] = molecular target: T10, ApoC3 peptide … L67N (human, not fully specified (bridges); also: cyclic constrained)
T10 peptide: DKFSEFWDNDPEV
Method: as §1, §2

[21] = molecular target: ApoC3 peptide … V71N (human, cyclic constrained)
Method: as §1, §2

[22] = molecular target: T11, ApoC3 peptide … D59Q (human, cyclic constrained)
T11 peptide: QKFSEFWDLDPEV
Method: as §1, §2

[23] = molecular target: ApoC3 peptide … E63Q (human, cyclic constrained)
Method: as §1, §2

[24] = molecular target: T12, ApoC3 peptide … W65Q (human, not fully specified (bridges); also: cyclic constrained, ring type and places not given here)
T12 peptide: DKFSEFQDLDPEV
Method: as §1, §2

[25] = molecular target: T13, ApoC3 peptide … L67Q (human, not fully specified (bridges); also: cyclic constrained)
T13 peptide: DKFSEFWDQDPEV
Method: as §1, §2

[26] = molecular target: T14, ApoC3 peptide … K60R (human, not fully specified (bridges); also: cyclic constrained)
T14 peptide: DRFSEFWDLDPEV
Method: as §1, §2

[27] = molecular target: T15, ApoC3 peptide … F64R (human, not fully specified (bridges); also: cyclic constrained)
T15 peptide: DKFSERWDLDPEV
Method: as §1, §2

[28] = molecular target: T16, ApoC3 peptide … D66R (human, not fully specified (bridges); also: cyclic constrained)
T16 peptide: DKFSEFWRLDPEV
Method: as §1, §2

[29] = molecular target: T17, ApoC3 peptide … K60S (human, not fully specified (bridges); also: cyclic constrained)
T17 peptide: DSFSEFWDLDPEV
Method: as §1, §2

[30] = molecular target: T18, ApoC3 peptide … W65S (human, not fully specified (bridges); also: cyclic constrained, ring type and places not given here)
T18 peptide: DKFSEFSDLDPEV
Method: as §1, §2

[31] = molecular target: ApoC3 peptide … P69S (human, cyclic constrained)
Method: as §1, §2

[32] = molecular target: T19, ApoC3 peptide … W65T (human, not fully specified (bridges); also: cyclic constrained, ring type and places not given here)
T19 peptide: DKFSEFTDLDPEV
Method: as §1, §2

[33] = molecular target: T20, ApoC3 peptide … D66T (human, not fully specified (bridges); also: cyclic constrained)
T20 peptide: DKFSEFWTLDPEV
Method: as §1, §2

[34] = molecular target: T21, ApoC3 peptide … D59V (human, not fully specified (bridges); also: cyclic constrained)
T21 peptide: VKFSEFWDLDPEV
Method: as §1, §2

[35] = molecular target: T22, ApoC3 peptide … L67V (human, not fully specified (bridges); also: cyclic constrained)
T22 peptide: DKFSEFWDVDPEV
Method: as §1, §2

[36] = molecular target: T23, ApoC3 peptide … F61W (human, not fully specified (bridges); also: cyclic constrained)
T23 peptide: DKWSEFWDLDPEV
Method: as §1, §2

[37] = molecular target: T24, ApoC3 peptide … F61Y (human, not fully specified (bridges); also: cyclic constrained)
T24 peptide: DKYSEFWDLDPEV
Method: as §1, §2

B1: anti-ApoC3 antibody 6A6 (antibody, V domains shown)
VH: EVQLVESGGGLVQPGGSLRLSCAASGFTFSSYAGRWVRQVPGKGLEWVSSINAGGGSTSYADSVKGRFTISRDNAKNTLYLQMNSLKPEDTAKYYCTQNSYRYWGQGTRVAVSS
VL: DVVLTQTPGSLSVVPGESASISCKASQSLIHTDGKTYLYWLLQKPGQRPQLLIYQVSSHESGVPDRFTGSGSGTDFTLKISGVKAEDAGVYYCAQATYNPRTFGQGTKLEIK
notes: it was detected with goat anti-human IgG (Fc); also called mAb 6A6; llama antibody 6A6
% of binding to wild-type peptide [1]: 97.3%
% of binding to wild-type peptide [2]: 57.4%
% of binding to wild-type peptide [3]: 10.4%
% of binding to wild-type peptide [4]: 7.92%
% of binding to wild-type peptide [5]: 151%
% of binding to wild-type peptide [6]: 70.7%
% of binding to wild-type peptide [7]: 9.36%
% of binding to wild-type peptide [8]: 85.4%
% of binding to wild-type peptide [9]: 0%
% of binding to wild-type peptide [10]: 109%
% of binding to wild-type peptide [11]: 85.8%
% of binding to wild-type peptide [12]: 44.2%
% of binding to wild-type peptide [13]: 26.5%
% of binding to wild-type peptide [14]: 44.3%
% of binding to wild-type peptide [15]: 11.1%
% of binding to wild-type peptide [16]: 7.9%
% of binding to wild-type peptide [17]: 0%
% of binding to wild-type peptide [18]: 56.5%
% of binding to wild-type peptide [19]: 38.8%
% of binding to wild-type peptide [20]: 19.8%
% of binding to wild-type peptide [21]: 98.7%
% of binding to wild-type peptide [22]: 95%
% of binding to wild-type peptide [23]: 46.3%
% of binding to wild-type peptide [24]: 38.3%
% of binding to wild-type peptide [25]: 25.7%
% of binding to wild-type peptide [26]: 105%
% of binding to wild-type peptide [27]: 79.1%
% of binding to wild-type peptide [28]: 0%
% of binding to wild-type peptide [29]: 156%
% of binding to wild-type peptide [30]: 132%
% of binding to wild-type peptide [31]: 75.6%
% of binding to wild-type peptide [32]: 105%
% of binding to wild-type peptide [33]: 0%
% of binding to wild-type peptide [34]: 65.1%
% of binding to wild-type peptide [35]: 56.5%
% of binding to wild-type peptide [36]: 32.9%
% of binding to wild-type peptide [37]: 112%
